Laboratory results published in US20260242759A1, “GQ/11 Protein Peptidomimetics” (Vrije Universiteit Brussel, priority 2022, published 2026).
Positions of bridges follow the written chain, without caps; N, C: chain ends. Non-standard residues stand in square brackets, D forms with d. Residues, ends and D or L forms follow the SMILES beside them. Triazole bridges read from a SMILES are 1,4-linked. Lys(N3) = [N-]=[N+]=NCCCC[C@H](N)C(=O)O; Cha = N[C@@H](CC1CCCCC1)C(=O)O; Pra = C#CC[C@H](N)C(=O)O

Tests used:
[1] = biological target: T1, human ghrelin receptor (GHSR) (Homo sapiens, UniProt Q92847, C146S/C304S); experiment: Bimane fluorescence assay on purified ghrelin receptor in nanodiscs; assay type: biochemical; details: for conformational change in the receptor: in presence of JMV1843
T1 construct: integrin α5 fragment (N); polyhistidine tag (C); made in house; host or cells: E. coli BL21(DE3)
T1 sequence (Q92847 whole entry C146S/C304S, the tested form may be a part): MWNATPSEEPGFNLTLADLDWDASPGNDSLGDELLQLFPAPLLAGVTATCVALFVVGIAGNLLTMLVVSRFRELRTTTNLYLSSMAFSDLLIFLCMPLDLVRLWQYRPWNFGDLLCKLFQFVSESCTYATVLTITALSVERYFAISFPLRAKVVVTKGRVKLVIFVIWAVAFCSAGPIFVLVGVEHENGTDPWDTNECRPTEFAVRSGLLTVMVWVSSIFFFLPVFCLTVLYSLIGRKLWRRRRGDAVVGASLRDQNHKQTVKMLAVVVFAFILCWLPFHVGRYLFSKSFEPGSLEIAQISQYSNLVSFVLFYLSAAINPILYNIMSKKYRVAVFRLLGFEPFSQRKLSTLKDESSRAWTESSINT
Text: Another assay that can be used to analyse conformational changes associated with GPCR activation and/or to identify G protein peptidomimetics that are capable of stabilizing a GPCR in an active conformational state is the bimane fluorescence assay or bimane assay. This assay works through labelling of a cysteine residue in the lower part of the TM6 of a GPCR with a bimane-fluorophore (monobromobimane (MB)). Binding of an agonist to the GPCR causes a conformational change and outward movement of TM6 that places bimane in a more solved-exposed position, which will alter its maximum emission wavelength. In particular, increasing concentrations of agonist result in a concentration-dependent red-shift of the maximum emission wavelength (λmax) of the bimane-fluorophore probe. In the presence of a G protein or an active state stabilizing G protein peptidomimetic λmax may increase further. For example, a bimane labelled ghrelin receptor (such as a cysmin mutant (i.e. mutant with minimal cysteines) of human ghrelin receptor (also referred to herein as growth hormone secretagogue receptor (GHSR) (e.g. the mutant as described in Damian et al. (2021) wherein monobromobimane (MB) fluorescent probe is attached to Cys^255) and ghrelin receptor agonist JMV1843 may be used.
The bimane fluorescence assays on the ghrelin receptor were performed as described in Damian et al. (2021. Nat. Commun. 12:1-15). Briefly, E. coli bacteria (BL21(DE3)) were transformed with a vector encoding the human ghrelin receptor with an integrin α5 fragment at the N-terminus and a polyhistidine tag at the C-terminus. The receptors were then purified and reconstituted into lipidated nanodiscs. The monobromobimane labeling was performed by incubating the receptors, with a unique reactive cysteine at position 255, during 16 h in the dark at 4° C. and in the presence of 0.1 mM tris(2-carboxyethyl)phosphine (TCEO). The reaction was terminated with 5 mM L-cysteine and unreacted monobromobimane was removed using a Zeba™ Spin desalting column.
For the fluorescence assay, the labeled receptor was incubated during 2 h at 20° C. (0.2 μM final concentration), in the absence or presence of the full agonist JMV1843 (20 μM) and in the absence or presence of either the peptidomimetics at varying molar ratios or the purified Gαqβ1γ2 heterotrimer, at a 1:5 receptor-to-G protein molar ratio. Afterwards, the fluorescence experiments were performed on a Horiba Fluoromax-4 TCSP spectrofluorimeter. For each scan, the excitation wavelength (λexc) was set at 380 nm and emission was collected between 440 nm and 520 nm.
The bimane assay is used on GPCRs to detect conformational changes associated with receptor activation. This assay functions through the labelling of a cysteine, which is one of the least frequently occurring amino acids in proteins. Additionally, the majority of the extracellular cysteines form disulfide bonds, which, together with the transmembrane cysteines, are inert to thiol-reactive reagents. Additionally, some of the intracellular cysteines in the C-terminal tail may carry post-translational modifications which reduces the number of reactive cysteines in the receptor (Tian et al. 2017. Chem. Rev. 117:186-245). For GHSR, the remaining reactive cysteine residues C146 (ICL2) and C304 (extracellular end of TM7) were replaced by serines (cysmin mutant, i.e. mutant with minimal cysteines), to allow the monobromobimane (MB) fluorescent probe to be specifically attached to Cys255 in the lower part of TM6 (FIG. 5a) (Damian et al. 2021). In this assay, bimane is chosen because of its small size and sensitivity to the polarity of its environment (Yao et al. 2006. Nat Chem. Biol. 2:417-422). Binding of a ligand to the receptor, causes a conformational change and outward movement of TM6 that places bimane in a more solvent-exposed position, which alters its maximum emission wavelength. […]

[2] = biological target: ghrelin receptor overexpressed on HEK293 cells (UniProt Q92847 1-366, limits assumed); experiment: cell-based or functional assay
Sequence of ghrelin receptor overexpressed on HEK293 cells (Q92847 whole entry): as the sequence (Q92847 whole entry C146S/C304S, the tested form may be a part) above, with S146C, S304C counted along it

[3] = biological target: T2, full-length human muscarinic 1 receptor with a FLAG tag at the N-terminus (human, UniProt P11229 1-460); experiment: cell-based or functional assay
T2 sequence: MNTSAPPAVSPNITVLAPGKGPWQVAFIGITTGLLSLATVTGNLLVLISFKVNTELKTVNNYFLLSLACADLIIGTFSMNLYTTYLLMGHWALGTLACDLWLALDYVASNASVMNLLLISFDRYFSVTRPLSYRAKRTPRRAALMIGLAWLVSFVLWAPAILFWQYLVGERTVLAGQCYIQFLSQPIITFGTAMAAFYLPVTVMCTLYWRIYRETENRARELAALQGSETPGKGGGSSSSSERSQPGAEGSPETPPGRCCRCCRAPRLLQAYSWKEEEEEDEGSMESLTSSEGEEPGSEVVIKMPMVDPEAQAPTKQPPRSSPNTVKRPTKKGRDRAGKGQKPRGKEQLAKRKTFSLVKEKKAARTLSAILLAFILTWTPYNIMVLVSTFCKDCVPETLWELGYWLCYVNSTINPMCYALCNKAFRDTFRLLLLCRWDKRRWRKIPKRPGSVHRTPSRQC

With `CC(C)(N)C(=O)N[C@H](Cc1c[nH]c2ccccc12)C(=O)N[C@H](Cc1c[nH]c2ccccc12)NC=O` [JMV1843, reference compound] the “maximum emission wavelength of bimane” value ([1]; agonist JMV1843 alone, in the absence of the Gq protein) was about 476 nm.

With “Gq protein: purified Gαqβ1γ2 heterotrimer used as reference in the bimane assay” the “maximum emission wavelength of bimane” value ([1]; bimane labeled GHSR, in presence of full agonist JMV1843 (20 μM)) was about 480.5 nm.

`CC[C@H](C)[C@H](NC(=O)[C@@H](NC(=O)[C@H](CC(=O)O)NC(=O)[C@H](CCCCN)NC(=O)[C@@H](NC(=O)[C@H](C)NC(=O)[C@H](C)NC(=O)[C@H](Cc1ccccc1)NC(C)=O)C(C)C)[C@@H](C)O)C(=O)N[C@@H](CC(C)C)C(=O)N[C@@H](CCC(N)=O)C(=O)N[C@@H](CC(C)C)C(=O)N[C@@H](CC(N)=O)C(=O)N[C@@H](CC(C)C)C(=O)N[C@@H](CCCCN)C(=O)N[C@@H](CCC(=O)O)C(=O)N[C@@H](Cc1ccc(O)cc1)C(=O)N[C@@H](CC(N)=O)C(=O)N[C@@H](CC1CCCCC1)C(=O)N[C@H](C(=O)O)C(C)C` [SBL-GQ-03] (Ac-FAAVKDTILQLNLKEYN[Cha]V-OH) was tested, and the “conformational change in the receptor” value ([1]; bimane labeled GHSR) was “not able to induce a conformational change”.

For Ac-FAAVKDTILQLNLKEYNLV-OH [SBL-GQ-01], the “conformational change in the receptor” value ([1]; bimane labeled GHSR) was “not able to induce a conformational change”.

In the case of `CC[C@H](C)[C@H](NC(=O)[C@@H]1CCCCn2cc(nn2)C[C@H](NC(=O)[C@H](C)NC(=O)[C@H](Cc2ccccc2)NC(=O)[C@H](CCCCN)NC(=O)[C@H](CCCCN)NC(=O)[C@H](CCCCN)NC(C)=O)C(=O)N[C@@H](C(C)C)C(=O)N[C@@H](CCCCN)C(=O)N[C@@H](CC(=O)O)C(=O)N1)C(=O)N[C@@H](CC(C)C)C(=O)N[C@@H](CCC(N)=O)C(=O)N[C@@H](CC(C)C)C(=O)N[C@@H](CC(N)=O)C(=O)N[C@@H](CC(C)C)C(=O)N[C@@H](CCCCN)C(=O)N[C@@H](CCC(=O)O)C(=O)N[C@@H](Cc1ccc(O)cc1)C(=O)N[C@@H](CC(N)=O)C(=O)N[C@@H](CC(C)C)C(=O)N[C@H](C(=O)O)C(C)C` [SBL-GQ-05] (Ac-KKKFA[Pra]VKD[Lys(N3)]ILQLNLKEYNLV-OH; triazole 6-10), the Emax ([1]; highest peptide concentrations (GHSR:peptide 1:50, 1:100), with JMV1843, read-out: effect normalized to the maximal effect of the Gq protein) is reported as about 90%.

B1: SBL-GQ-14 (peptide)
peptide: H-RRRRFA[Pra]VKD[Lys(N3)]ILQLNLKEYNLV-OH
modifications: triazole 7-11
For B1, the “EC50 (M) of the MK0677 agonist, IP-One Gq assay, peptidomimetic at 10 µM, n = 1” value [2] was 6.96e-10 M, the “EC50 (M) of the MK0677 agonist, IP-One Gq assay, peptidomimetic at 10 µM, n = 2” value [2] was 1.01e-10 M and the “EC50 (M) of the MK0677 agonist, IP-One Gq assay, peptidomimetic at 10 µM, n = 3” value [2] was 1.87e-10 M.

B2: SBL-GQ-10 (peptide)
peptide: Ac-KKKFNDCKDIILQMNLREYN[Cha]V-OH
SMILES: CC[C@H](C)[C@H](NC(=O)[C@H](CC(=O)O)NC(=O)[C@H](CCCCN)NC(=O)[C@H](CS)NC(=O)[C@H](CC(=O)O)NC(=O)[C@H](CC(N)=O)NC(=O)[C@H](Cc1ccccc1)NC(=O)[C@H](CCCCN)NC(=O)[C@H](CCCCN)NC(=O)[C@H](CCCCN)NC(C)=O)C(=O)N[C@H](C(=O)N[C@@H](CC(C)C)C(=O)N[C@@H](CCC(N)=O)C(=O)N[C@@H](CCSC)C(=O)N[C@@H](CC(N)=O)C(=O)N[C@@H](CC(C)C)C(=O)N[C@@H](CCCNC(=N)N)C(=O)N[C@@H](CCC(=O)O)C(=O)N[C@@H](Cc1ccc(O)cc1)C(=O)N[C@@H](CC(N)=O)C(=O)N[C@@H](CC1CCCCC1)C(=O)N[C@H](C(=O)O)C(C)C)[C@@H](C)CC
For B2, the “IC50 (µM) of the agonist acetylcholine chloride for the M1 receptor in the presence of the peptidomimetic, RLA” value (from here on “IC50 (µM)”) [3] was 409 µM and the “Shift (IC50 ratio without/with peptidomimetic), RLA” value [3] was 2.

B3: SBL-GQ-02 (peptide)
peptide: Ac-KKKFAAVKDTILQLNLKEYNLV-OH
B3 was tested, and the “IC50 (µM)” value [3] was 474 µM and the “Shift (IC50 ratio without/with peptidomimetic), RLA” value [3] was 2.

B4: SBL-GQ-08 (peptide)
peptide: Ac-KKKFNDCKDIILQMNLREYNLV-OH
B4 was tested, and the “IC50 (µM)” value [3] was 413 µM and the “Shift (IC50 ratio without/with peptidomimetic), RLA” value [3] was 2.

B5: SBL-GQ-13 (peptide)
peptide: H-KKKFA[Pra]VKD[Lys(N3)]ILQLNLKEYNLV-OH
modifications: triazole 6-10
B5 was tested, and the “EC50 (M) of the MK0677 agonist, IP-One Gq assay, peptidomimetic at 10 µM, n = 1” value [2] was 4.42e-10 M, the “EC50 (M) of the MK0677 agonist, IP-One Gq assay, peptidomimetic at 10 µM, n = 2” value [2] was 1.01e-10 M and the “EC50 (M) of the MK0677 agonist, IP-One Gq assay, peptidomimetic at 10 µM, n = 3” value [2] was 1.31e-10 M.
